# Source: patent US20180185504A1 (Regeneron, published 2018)
# B1: H1H6765P-DM1 (antibody, human IgG1, V domains shown)
# VH: EVQLVESGGGVVRPGGSLRLSCVGSGFSFDDHGMNWVRQGPGKGLEWVSGFNWNGGSTNYAESVKGRFTISRDNARNSLFLQMNSLRAEDTALYYCVRGRSGWFNDAFDVWGPGTMVTVSS
# VL: EIVLTQSPGTLSLSPGERATLSCRASQTINSNYLAWYRQKPGQTPRLLIYGTSSRATGIPDRFSGSGSGTDFSLTISRLEPEDFAVFYCQQYAGLPTFGPGTKVDIK
# modifications: DM1 conjugated through SMCC linker; attachment residues not stated
# B2: H1H6975N-DM1 (antibody, human IgG1, V domains shown)
# VH: EVHLVESGGGLVQPGGSLRLSCAASGFTFSSYEMNWVRQTPGKGLEWISHISSRSVIIYYADSVKGRFTISRDNAKNSLFLQMNSLRAEDTAVYFCAGITIFGIPEYWGQGTLVTVSS
# VL: EIVLTQSPATLSLSPGERATLSCRASQSVSSYFAWYQQKPGQAPRLLIYDASSRATGIPTRFSGSGSGTDFTLTISSLEPEDFAVYYCQQRSSWPITFGQGTRLEIK
# modifications: DM1 conjugated through SMCC linker; attachment residues not stated
# B3: H1H6958N2-mc-VC-PAB-MMAE (antibody, human IgG1, V domains shown)
# VH: QVQLVESGGGVVQPGRSLRLSCGASGFTFRNYGMQWVRQGPGKGLEWVTLISFDGNDKYYADSVKGRFTISRDNSKNTLFLQMNSLRTEDTAVYYCARGGDFDYWGQGTLVTVSS
# VL: DIQMTQSPSSLSASVGDRVTITCRASQDIRKDLGWYQQKPGKAPKRLIYAASSLHSGVPSRFSGSGSGTEFTLTISSLQPEDFATYYCLQHNSYPMYTFGQGTKLEIK
# modifications: MMAE conjugated through cleavable mc-vc-PAB linker; attachment residues not stated
# B4: H1H6765P-mc-VC-PAB-MMAE (antibody, human IgG1, V domains shown)
# VH: B1 VH
# VL: B1 VL
# modifications: MMAE conjugated through cleavable mc-vc-PAB linker; attachment residues not stated
# B5: H1H6953N-mc-VC-PAB-MMAE (antibody, human IgG1, V domains shown)
# VH: EVQLLESGGGLVQPGGTLRLSCAASGFTFSAYAMSWVRQAPGKGLEWVSSINVRAGDTYYADSVKGRFTISRDNSKNTLFLLMNSLRAEDTAAYYCAKARYSSNWGFDFWGQGTLVTVSS
# VL: DIVMTQSPDSLTVSLGARTTINCQSSQTILHSSNNHNYLAWYQQKPGLPPKLLIYWSSTRESGVPDRFSGSGSGTDFTLTISSLQAEDVAIYYCQQYSNTPYTFGQGTKLEIN
# modifications: MMAE conjugated through cleavable mc-vc-PAB linker; attachment residues not stated
# Molecular target: T1, human prolactin receptor (PRLR) (human, UniProt P16471 25-622)
# T1 sequence: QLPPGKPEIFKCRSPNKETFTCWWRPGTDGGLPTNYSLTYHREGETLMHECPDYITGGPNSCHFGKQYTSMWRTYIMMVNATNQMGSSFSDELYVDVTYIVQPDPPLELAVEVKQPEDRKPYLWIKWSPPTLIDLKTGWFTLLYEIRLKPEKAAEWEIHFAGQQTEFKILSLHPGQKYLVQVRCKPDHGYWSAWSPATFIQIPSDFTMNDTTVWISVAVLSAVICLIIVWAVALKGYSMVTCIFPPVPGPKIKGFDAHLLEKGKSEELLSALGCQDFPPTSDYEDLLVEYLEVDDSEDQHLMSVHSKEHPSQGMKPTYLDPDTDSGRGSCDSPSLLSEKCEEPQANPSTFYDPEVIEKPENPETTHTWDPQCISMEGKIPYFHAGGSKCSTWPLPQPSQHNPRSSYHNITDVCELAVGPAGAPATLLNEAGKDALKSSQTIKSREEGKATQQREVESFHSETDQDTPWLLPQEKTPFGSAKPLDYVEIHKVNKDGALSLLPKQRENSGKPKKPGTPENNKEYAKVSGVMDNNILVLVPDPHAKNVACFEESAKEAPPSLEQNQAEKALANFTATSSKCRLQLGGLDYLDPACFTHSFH
# Experiment: cell-based or functional assay
Binder,"% Kill, PC3/PRLR cells [%]","IC50, cell viability, PC3/PRLR cells [nM]"
B1,70,0.57
B2,68,2.7

# Molecular target: T1, human prolactin receptor (PRLR)
# Experiment: cell-based or functional assay
# Remark: another data set of the same source
Binder,"% Kill, MCF7/ATCC cells [%]","% Kill, MCF7/PRLR cells [%]","% Kill, PC3/hPRLR cells [%]","IC50, cell viability, MCF7/ATCC cells [nM]","IC50, cell viability, MCF7/PRLR cells [nM]","IC50, cell viability, PC3/hPRLR cells [nM]"
B3,53,88,82,150,0.2,0.5
B1,71,81,83,90,0.1,0.3
B4,38,86,85,150,0.2,0.4
B5,42,85,80,150,0.1,0.2

# Molecular target: T1, human prolactin receptor (PRLR)
# Experiment: cell-based or functional assay
# Remark: another data set of the same source
Binder,"% Kill, T47D cells [%]","IC50, cell viability, T47D cells [nM]"
B3,90,1
B1,90,1
B4,90,1
B5,80,1
B2,100,2

# Molecular target: T1, human prolactin receptor (PRLR)
# Experiment: cell-based or functional assay
# Remark: another data set of the same source
Binder,"% Kill, MCF7/ATCC cells [%]","% Kill, MCF7/PRLR cells [%]","IC50, cell viability, MCF7/ATCC cells [nM]","IC50, cell viability, MCF7/PRLR cells [nM]"
B3,50,90,150,0.2
B1,70,90,150,0.3
B4,40,90,150,0.2
B5,40,85,150,0.1
B2,70,80,200,0.2

# Molecular target: T1, human prolactin receptor (PRLR)
# Experiment: cell-based or functional assay
# Remark: another data set of the same source
Binder,"% Kill, MCF7/PRLR cells [%]","% Kill, MCF7 cells [%]","% Kill, T47D cells [%]","IC50, cell viability, MCF7/PRLR cells [nM]","IC50, cell viability, MCF7 cells [nM]","IC50, cell viability, T47D cells [nM]"
B1,84,68,78,0.18,150,1.63
B2,87,73,80,0.49,150,6.9
